In PMC11208152, “Dynamic Arabidopsis P5CS filament facilitates substrate channelling” (Nature Plants, 2024):

B1: Arabidopsis thaliana delta-1-pyrroline-5-carboxylate synthase 1 (AtP5CS1) (enzyme, UniProt P54887 1-717, looked up)
chain: MEELDRSRAFARDVKRIVVKVGTAVVTGKGGRLALGRLGALCEQLAELNSDGFEVILVSSGAVGLGRQRLRYRQLVNSSFADLQKPQTELDGKACAGVGQSSLMAYYETMFDQLDVTAAQLLVNDSSFRDKDFRKQLNETVKSMLDLRVIPIFNENDAISTRRAPYQDSSGIFWDNDSLAALLALELKADLLILLSDVEGLYTGPPSDPNSKLIHTFVKEKHQDEITFGDKSRLGRGGMTAKVKAAVNAAYAGIPVIITSGYSAENIDKVLRGLRVGTLFHQDARLWAPITDSNARDMAVAARESSRKLQALSSEDRKKILLDIADALEANVTTIKAENELDVASAQEAGLEESMVARLVMTPGKISSLAASVRKLADMEDPIGRVLKKTEVADGLVLEKTSSPLGVLLIVFESRPDALVQIASLAIRSGNGLLLKGGKEARRSNAILHKVITDAIPETVGGKLIGLVTSREEIPDLLKLDDVIDLVIPRGSNKLVTQIKNTTKIPVLGHADGICHVYVDKACDTDMAKRIVSDAKLDYPAACNAMETLLVHKDLEQNAVLNELIFALQSNGVTLYGGPRASKILNIPEARSFNHEYCAKACTVEVVEDVYGAIDHIHRHGSAHTDCIVTEDHEVAELFLRQVDSAAVFHNASTRFSDGFRFGLGAEVGVSTGRIHARGPVGVEGLLTTRWIMRGKGQVVDGDNGIVYTHQDIPIQA
notes: Delta-1-pyrroline-5-carboxylate synthase 1 (P5CS1) of Arabidopsis thaliana; also called His6-AtP5CS1; not shown: His6, N-terminal, kept
B2: Arabidopsis thaliana delta-1-pyrroline-5-carboxylate synthase 2 (AtP5CS2), wild type (enzyme, UniProt P54888 1-726, looked up)
chain: MTEIDRSRAFAKDVKRIVVKVGTAVVTGKGGRLALGRLGAICEQLAELNSDGFEVILVSSGAVGLGRQRLRYRQLVNSSFADLQKPQMELDGKACAGVGQSSLMAYYETMFDQLDVTVAQMLVTDSSFRDKDFRKQLSETVKAMLRMRVIPVFNENDAISTRRAPYKDSTGIFWDNDSLAALLSLELKADLLILLSDVEGLYTGPPSDSTSKLIHTFIKEKHQDEITFGEKSKLGRGGMTAKVKAAVNAAYGGVPVIITSGYAAENISKVLRGLRVGTLFHQDAHLWAPVVDTTSRDMAVAARESSRKLQALSSEDRKQILHDIANALEVNEKTIKAENDLDVAAAQEAGYEESLVARLVMKPGKISSLAASVRQLAEMEDPIGRVLKKTQVADDLILEKTSSPIGVLLIVFESRPDALVQIASLAIRSGNGLLLKGGKEARRSNAILHKVITDAIPETVGGKLIGLVTSREEIPDLLKLDDVIDLVIPRGSNKLVSQIKNSTKIPVLGHADGICHVYVDKSGKLDMAKRIVSDAKLDYPAACNAMETLLVHKDLEQNGFLDDLIYVLQTKGVTLYGGPRASAKLNIPETKSFHHEYSSKACTVEIVEDVYGAIDHIHQHGSAHTDCIVTEDSEVAEIFLRQVDSAAVFHNASTRFSDGFRFGLGAEVGISTSRIHARGPVGVEGLLTTRWIMRGKGQVVDGDNGIVYTHKDLPVLQRTEAVENGI
notes: Delta-1-pyrroline-5-carboxylate synthase 2 (P5CS2) of Arabidopsis thaliana; In the filament the helical unit is a tetramer (GK tetramer core, two GPR dimers); Only the GK tetramer was modelled at high resolution; also called AtP5CS2-WT; WT AtP5CS2; source: E. coli Rosetta (DE3), purified (Ni-NTA, SUMO-tag removed with yeast ULP1, Superose 6 Increase SEC); not shown: His6, N-terminal, cleaved; …
B3: AtP5CS2-GK, truncated AtP5CS2 consisting of residues 1-290 (glutamate kinase domain) (domain or fragment, Arabidopsis thaliana, UniProt P54888 1-290, looked up)
chain: MTEIDRSRAFAKDVKRIVVKVGTAVVTGKGGRLALGRLGAICEQLAELNSDGFEVILVSSGAVGLGRQRLRYRQLVNSSFADLQKPQMELDGKACAGVGQSSLMAYYETMFDQLDVTVAQMLVTDSSFRDKDFRKQLSETVKAMLRMRVIPVFNENDAISTRRAPYKDSTGIFWDNDSLAALLSLELKADLLILLSDVEGLYTGPPSDSTSKLIHTFIKEKHQDEITFGEKSKLGRGGMTAKVKAAVNAAYGGVPVIITSGYAAENISKVLRGLRVGTLFHQDAHLWAPV
notes: Delta-1-pyrroline-5-carboxylate synthase 2 (P5CS2) of Arabidopsis thaliana, residues 1-290, the glutamate kinase (GK) domain; probably made as His6-SUMO fusion in E. coli and cleaved with ULP1 like the full-length AtP5CS2 (surmised); also called AtP5CS2 GK domain

Legend:
[1] = molecular target: the molecule itself; test: cryo-EM structure; mixed state: about 5 μM purified protein in reaction buffer with all substrates (25 mM Tris-HCl pH 8.0, 150 mM NaCl, 20 mM glutamate, 10 mM MgCl2, 5 mM ATP, 0.5 mM NADPH), on ice about 30 min (AtP5CS1) or 60 min (AtP5CS2); filament of tetrameric helical units, focus refinement on the GK tetramer
[2] = molecular target: the molecule itself; test: negative-staining EM; purified protein about 2-4 μM incubated at 25 °C with substrates (ATP, glutamate, both, or all substrates = mixed state) at the concentrations of the activity assay; step seen: oligomers (tetramers) into filaments

Row | Protein | stoichiometry N [1] | binding result [2]
1 | B1 | 4 | 
2 | B2 | 4 | 
3 | B3 |  | binds
